Reference: patent US20230272088A1 (SYNTHEKINE, published 2023)

B1: DR919 (VHH)
VHH: EVQLVESGGGLVQPGGFLRLSCAASRRTLSTYAMGWFRQAPGKEREFVAAISWRSGNTYYADSVKGRFTISRDNAKNTMYLQMNSLKPEDTAVYYCAANEVATMSGPHDHWGQGTLVTVSS
notes: also called anti-IFNGR1 sdAb VHH DR919
B2: DR904 (VHH)
VHH: EVQLVESGGGLVQAGGSLRLSCEASESILSINTMGWFRQAPGKQRELVAAISSGGSTNYADSVKGRFTISRDNAKNTVYLQMNSLKPEDTAVYYCDADRAYYKGQGTQVTVSS
notes: also called anti-IFNGR1 sdAb VHH DR904
B3: DR921 (VHH)
VHH: QVQLVESGGGLVQAGDSLRLSCAASGRTFTFSTHNMGWFRQAPGKEREFVGGIMWTSRASYADSVKGRFTVSRDNAKNTVYLQMNSLKPEDTAVYYCAAAWYGNSGASYDYWGQGTQVTVSS
notes: also called anti-IFNGR1 sdAb VHH DR921
B4: DR938 (VHH)
VHH: QVQLVESGGGLVQPGGSLRLSCTASGRPRTTYAMGWFRQAPGKEREIVAAISKAGGSTYVADSAKGRFAISKDNAKNTVYLQMNSLKPEDTAVYYCAARAGFAAQIFEYDYWGQGTLVTVSS
notes: also called anti-IFNGR2 sdAb VHH DR938
B5: DR952 (VHH)
VHH: QVQLVESGGGLVQAGGFLRLSCAASGRTFSSLAMAWFRQAPGKEREFVAAISRSGGSTDYADSVKGRFTISRDNAKSTLYLQMSSLKPEDTAVYYCAARDYSTLQYYNEYEYSDWGQGTLVTVSS
notes: also called anti-IFNGR2 sdAb VHH DR952
B6: DR949 (VHH)
VHH: QVQLVESGGGLVQAGGSLRLSCAASESILRFNVMSWLRQAPGKQRELVAVITSGGSTNYADSVKGRFTISRDNAKNTVYLQMNSLKPEDTAVYYCAADESGQYYWGQGTQVTVSS
notes: also called anti-IFNGR2 sdAb VHH DR949
B7: DR937 (VHH)
VHH: QVQLVESGGGLVQPGGSLRLSCAASGRTFRSYSMGWFRQAPGKEREFVAAISWYSGTTYYADPVKGRFTISRDDAKNTLYLQMNSLKPEDTAVYYCAANEIATMESSNDYWGQGTQVTVSS
notes: also called anti-IFNGR2 sdAb VHH DR937
B8: DR943 (VHH)
VHH: QVQLVESGGGLVQAGGSLRLSCVASGRTVGYGMAWFRQAPGKQRDVVAAITWSGTSTYYPDSVKGRFTISRDNAKNTMYLQMSSLKPEDTAVYYCAAGSRRRVGVDVGGYDYWGQGTQVTVSS
notes: also called anti-IFNGR2 sdAb VHH DR943
B9: DR927 (VHH)
VHH: QVQLVESGGGLVQAGGSLRLSCAASGRTFTSYAMNWFRQAPGKEREFVAAISWSSGNTYVADSVKGRFAISRDKAKNTMYLQMNSLAPEDTAVYYCAATTIATMSDEYTYWGQGTQVTVSS
notes: also called anti-IFNGR2 sdAb VHH DR927
B10: DR934 (VHH)
VHH: QVQLVESGGGLVQAGGSLRLSCAASGRSFANYAMGWFRQAPGKERETVAAISRGGGSTWYADSVKGRFTISKDNAKNTVYLQMNSLKPEDTAIYYCAARSYSGSYTYSFGEYDYWGQGTQVTVSS
notes: also called anti-IFNGR2 sdAb VHH DR934
B11: DR940 (VHH)
VHH: EVQLVESGGRLVQTGGSLRLSCAASGRTFSNYAMGWFRQAPGKEREFVAAISWYSGNTYYADSVKGRFTISRDNAKNTMYLQMNSLKPEDTAVYYCAANQIATMISVGDYWGQGTLVTVSS
notes: also called anti-IFNGR2 sdAb VHH DR940
B12: DR929 (VHH)
VHH: QVQLVESGGGLVQAGGSLRLSCVASGRTFSSYAMGWFRQTPGKEREFVSAISRGGGSTDYADSVKGRFTISRDNAKNTVYLQMNNLKSEDTAVYYCALRAYSGRYYQFLEYDYWGQGTQVTVSS
notes: also called anti-IFNGR2 sdAb VHH DR929
B13: DR948 (VHH)
VHH: QVQLVESGGGLVQAGDSLRLSCVASGSIDSSYYVSWFRQAPGKERDLVAAINWGDSRTAYADSVKGRFTISRDNAKNTVYLQMHSLRPNDTAVYYCASRIGLGGPVVAAPTRYPYWGQGTLVTVSS
notes: also called anti-IFNGR2 sdAb VHH DR948
B14: DR951 (VHH)
VHH: QVQLVESGGGLVQAGGSLRLSCAASGRTFGTSFGSLSMGWFRQAPGKEREFVAAISRNIGRTYYADSVKDRFTISRDNAKNTASLQMNSLEPEDTAVYNCAATNSYDDLRRSYAYDYWGQGTQVTVSS
notes: also called anti-IFNGR2 sdAb VHH DR951
B15: DR930 (VHH)
VHH: EVQLVESGGGLVQAGGSLRLSCTVSGRTFSSYAVAWFRQAPGNVRELAAALSRGGGSAYYTDSVKGRFTISRDNAKNTVYLQMNSLKPEDTAVYYCAARNYDGTYYQENQYNYWGQGTQVTVSS
notes: also called anti-IFNGR2 sdAb VHH DR930
B16: DR946 (VHH)
VHH: QVQLVESGGGLVQPGESLRLSCAASGPFTRYAMGWFRQAPGKEREFVAAISWSSGNTYYVDSVKGRFTISRDNAKNTMYLQMNSLKPEDTAVYYCAANEVATMSGPDDYWGQGTQVTVSS
notes: also called anti-IFNGR2 sdAb VHH DR946
B17: DR928 (VHH)
VHH: QVQLVESGGGLVQAGGSLRLSCAASGRTFSNYRMGWFRQAPGKEREFVAAISRGGGTTLYADSVKGRFTISRDNAKNTVDLQMNRLKPEDTAVYFCAAGDFSTTWDEYNYWGQGTQVTVSS
notes: also called anti-IFNGR2 sdAb VHH DR928
B18: DR935 (VHH)
VHH: QVQLVESGGGLVQAGGSLRLSCAASGRAFSTYALGWFRQAPGKEREFIAAISRGGGSTDYADSVKGRFTISRDNAKSTVYLQMNSLKPEDTAVYYCAARSYSSSYYYSQYEYDYWGQGTQVTVSS
notes: also called anti-IFNGR2 sdAb VHH DR935
B19: DR947 (VHH)
VHH: QVQLVESGGGLVQAGGSLRLSCAASGGSFGRYTMGWYRQAPGKEREFVAVISWSGTNTYYADSVKGRFTISRDNAKNTMYLQMNDLKPEDTAVYYCAARETYYSHWDERMEYDYWGQGTQVTVSS
notes: also called anti-IFNGR2 sdAb VHH DR947
B20: DR931 (VHH)
VHH: QVQLVESGGGLVQAGGSLLLSCAASGRTFSTYAMGWFRQAPGKERMFVAAISVNGGSTYYADSVTGRFTISRDNAKNTMYLQMNNLKPGDTAVYYCAARRPYPGSDFLTWASYDYRGQGTLVTVSS
notes: also called anti-IFNGR2 sdAb VHH DR931
B21: DR950 (VHH)
VHH: QVQLVESGGGLVQAGGSLRLSCAASGLTTSSAALAWFRQAPGKERELDPTITSGGGSTYYADSVKGRFTISKDNAKNTLYLQMSSLKPEDTAVYYCAARFYSTTYYYREHEYSDWGQGTQVTVSS
notes: also called anti-IFNGR2 sdAb VHH DR950
B22: DR933 (VHH)
VHH: QVQLVESGGGLVQPGDSLRLSCVASGGTISSLAMGWFRQAPGKEREFVAAISWSGRSTYYVDSVKGRFTISTDNAKNTVYLQMNSLKPEDTAVYYCVAGEDGHSEYDYWGQGTQVTVSS
notes: also called anti-IFNGR2 sdAb VHH DR933
B23: DR932 (VHH)
VHH: QVQLVESGGGLVQAGGFLRLSCAASGRTFSYTTIGWFRQAPGKEREFVAVISAGGGSRDYADALKGRFTISRDNAKKMVYLQMNNLKPEDTAVYYCAVRRNTDTYTTTGDYDYWGQGTQVTVSS
notes: also called anti-IFNGR2 sdAb VHH DR932
B24: DR936 (VHH)
VHH: EVQLVESGGGLVQAGGSLRLSCAASGRTFSSVAMAWFRQAPGKEREFVSAISSGGGSTDYADSVKGRFTISKDNAKNTMYLQMDSLKPEDTAVYYCAARDYSSRRYYQSRYEYDLWGLGTQVTVSS
notes: also called anti-IFNGR2 sdAb VHH DR936
B25: DR941 (VHH)
VHH: QVQLVESGGGLVEAGGSLRLACAASGSIFRLNLMGWYRQAPGKQRELVAHVGTTGNTAYADSVKGRFTISKDDAKNMVFLQMNSLKPEDTAVYYCYADRWGQFSWGQGTQVTVSS
notes: also called anti-IFNGR2 sdAb VHH DR941
B26: DR939 (VHH)
VHH: EVQLVESGGGLVQAGGSMRLSCANSGRTFGTYAMGWFRQSPGKERERVASIDRDGSMSYYADSVKGRFTISGDNAKNTVYLQMNSLKPEDTAVYYCAASRRAVISLQTVDYWGQGTQVTVSS
notes: also called anti-IFNGR2 sdAb VHH DR939

molecular target: T1, extracellular domain of hIFNGR1 (human, UniProt P15260 18-245, conjugated to Alexa647 (site not stated)); assay: flow cytometry, yeast-displayed VHH, 100 nM Alexa647-conjugated antigen
T1 construct: UniProt P15260 residues 18-245; also called hIFNGR1-ECD; human IFNGR1 ECD
T1 sequence: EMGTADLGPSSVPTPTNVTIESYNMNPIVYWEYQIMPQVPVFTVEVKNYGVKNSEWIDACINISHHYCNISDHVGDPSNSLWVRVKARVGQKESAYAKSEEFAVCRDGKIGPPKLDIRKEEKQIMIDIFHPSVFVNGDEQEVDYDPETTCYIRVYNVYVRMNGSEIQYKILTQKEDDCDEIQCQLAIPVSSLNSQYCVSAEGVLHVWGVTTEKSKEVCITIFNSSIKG
Description: (§1) Binding of individual VHH to human and murine antigen was tested by flow cytometry. Briefly, 2E5 yeast cells expressing a single sdAb clone were added to each well of a 96 well plate. The first plate was incubated with 100 nM of human antigen conjugated to Alexa647 whereas the second plate was incubated with 100 nM of murine antigen conjugated to Alexa647. Yeast cells were washed 3 times with PBS containing 1% bovine serum albumin. Yeast cells were analyzed using flow cytometry and clones showing a mean fluorescence intensity of greater than 1000 were considered as binding molecules. Specificity of sdAbs was confirmed by incubating yeast cells with a irrelevant protein conjugated to Alexa647. Positive clones were sequenced, and sequences analyzed to identify unique clonotypes.

Binding result, binds:
B1
B2
B3

molecular target: T2, extracellular domain of hIFNGR2 (human, UniProt P38484 28-247, conjugated to Alexa647 (site not stated)); assay: as above
T2 construct: also called hIFNGR2-ECD; human IFNGR2 ECD
T2 sequence: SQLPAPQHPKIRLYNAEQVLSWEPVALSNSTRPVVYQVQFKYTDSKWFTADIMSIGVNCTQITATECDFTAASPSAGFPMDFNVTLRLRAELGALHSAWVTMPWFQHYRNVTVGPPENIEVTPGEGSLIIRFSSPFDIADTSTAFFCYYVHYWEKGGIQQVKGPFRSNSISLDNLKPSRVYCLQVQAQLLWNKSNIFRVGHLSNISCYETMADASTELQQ
Description: as §1

Binding result, binds:
B4
B5
B6
B7
B8
B9
B10
B11
B12
B13
B14
B15
B16
B17
B18
B19
B20
B21
B22
B23
B24
B25
B26
